Reference: US10500274B2, “Methods for reducing viral load in HIV-1 infected patients” (CytoDyn Inc., priority 2008, dated 2019)
“And” between values parts separate entries of the source, which are not always exact repeats. Identical values can stand only once. Like-named read-outs stand apart in the source and are kept apart here.

Assays:
CCR5 lymphocytes = assay: Phase 1a clinical study: coating of CCR5 cells by PRO 140; format: in vivo, human; conditions: single IV 2 mg/kg
Experimental: Individuals were treated in sequential, dose-rising cohorts of 5 subjects (4 active and 1 placebo) each and evaluated for up to 120 days post-treatment. […] Safety assessments consisted of monitoring the following: vital signs (blood pressure, pulse, temperature, etc; hematology (hemoglobin, hematocrit, leukocytes, platelets, etc.); serum chemistries (AST/ALT, alkaline phosphatase, BUN, creatinine, etc.); urinalysis (pH, specific gravity, protein, glucose, leukocytes, etc.); and ECGs (12-lead).
Whole blood specimens were combined separately with the indicated phycoerythrin-labeled anti-CCR5 antibodies or with appropriate isotype-control antibodies. Erythocytes were lysed and leukocytes were stabilized using the ImmunoPrep Reagent System (Beckman Coulter), and the cells were analyzed on a TQ Prep™ flow cytometry workstation (Beckman Coulter). Data were expressed as the percent of CCR5 cells relative to all cells gated in the analysis.

R5-tropic HIV-1 = assay: Phase 1b clinical study: plasma HIV-1 RNA; format: in vivo, human
Experimental: Plasma HIV-1 RNA levels were determined with the Cobas Amplicor HIV-1 Monitor Test (Version 1.5; Roche Diagnostics, Branchburg, N.J.). Samples <400 copies/mL were re-analyzed with the Ultrasensitive Monitor Method. Co-receptor tropism was determined at screening and Days 1, 8, 29 and 59 (Trofile™ assay, Monogram Biosciences, Inc., South San Francisco, Calif.). Viral susceptibility was determined on Days 1 and 59 with the Phenosense™ HIV Entry assay. Results obtained with CCR5^+ target cells were reported as Fold Change or relative EC50 (rEC50), which was defined as (EC50 test isolate)/(EC50 reference virus). […] Maximum percent inhibitions were determined from the plateaus of the inhibition curves. The reference virus was HIV-192HT594, a low-passage dual-tropic isolate. GeneSeq™ (Monogram Biosciences) was used to assess HIV-1 subtype and genotypic susceptibility to protease and reverse transcriptase inhibitors.
Statistical analyses were performed on log10 transformed HIV-1 RNA data, and changes were calculated relative to baseline (Day 1 pre-dose). Treatment and placebo groups were compared using an analysis of variance (ANOVA) model. […] In addition, 2-sided paired t-tests were used to evaluate changes from baseline in CCR5^+ lymphocytes. Where necessary, end-of-study lymphocyte data were used in place of missing baseline data. […] AUC∞ values for individual subjects were used in the model. Clinical Trial Design and Study Results:
The subjects comprised 31 males and 8 females, and their median age, CD4 counts and plasma HIV-1 RNA levels at baseline were 40.3 years, 484 cells/μL and 26,900 copies/mL, respectively Fifteen subjects reported prior use of antiretroviral therapy, and seven were co-infected with hepatitis C virus (HCV). All viruses were subtype B, and baseline genotypic resistance to existing drugs was limited to single-class resistance in two subjects in the 2 mg/kg group and a single subject in each of the other groups. The mean infusion time was 36 minutes, and all subjects completed the 58-day follow-up period. All patients were screened prior to the study for the presence of virus that utilizes only CCR5 as the entry coreceptor, i.e., CCR5-tropic virus.

[1] = human, in vivo; for Peak serum concentration (average) / mean time to last observation (tlast) / volume of distribution (average): iv
Excerpt: PK metrics were estimated using non-compartmental methods.

[2] = test system: CCR5+ and CD4+ lymphocytes; format: in vivo, human
Experimental: CCR5^+ and CD4^+ lymphocytes were measured by flow cytometry.

R5 HIV-1 = assay: Phase 2 trial of subcutaneous PRO 140: HIV-1 RNA; format: in vivo, human
Experimental: More particularly, dosing comprises 162 mg q1wx3, 324 mg q1wx3, 324 mg q2wx2. Subcutaneous PRO 140 offers a long-acting, self-administered therapy for HIV infection.
(§1) Subjects were followed for a total of 58 days for safety and antiviral effects. Entry criteria included: HIV-1 RNA >5,000 copies/mL, R5 virus, […], no antiretroviral therapy <12 weeks.

[3] = set-up: species or system human; conditions: in vivo, sc
Excerpt: as §1

B1: PRO 140: humanized IgG4,κ anti-CCR5 mAb, humanized version of the murine mAb PA14 (antibody, chains of the INN, looked up, V domains shown)
VH: EVQLVESGGGLVKPGGSLRLSCAASGYTFSNYWIGWVRQAPGKGLEWIGDIYPGGNYIRNNEKFKDKTTLSADTSKNTAYLQMNSLKTEDTAVYYCGSSFGSNYVFAWFTYWGQGTLVTVSS
VL: DIVMTQSPLSLPVTPGEPASISCRSSQRLLSSYGHTYLHWYLQKPGQSPQLLIYEVSNRFSGVPDRFSGSGSGTDFTLKISRVEAEDVGVYYCSQSTHVPLTFGQGTKVEIK
coating of CCR5 lymphocytes (in words) (CCR5 lymphocytes): effectively coats CCR5 lymphocytes without cellular depletion for two weeks
AUC50, exposure required to achieve 50% of Emax (R5-tropic HIV-1; Emax model): 43.7 ± 15.6 mg·days/L
Mean HIV-1 RNA reduction (maximum) (R5-tropic HIV-1; HIV-infected adults, single IV 0.5 mg/kg): 0.58 log10
day by which viral loads returned to baseline (R5-tropic HIV-1; all treatment groups): ≤ 29 days
lowest documented HIV-1 RNA level on study (R5-tropic HIV-1; human, in vivo): 61 copies/mL
Log10 change from baseline in HIV-1 RNA: Mean (±SD) of individual nadirs (R5-tropic HIV-1; single IV 0.5 mg/kg): −0.58 ± 0.30 log10
antiviral response rate (subjects with ≥1.0 log10 reduction at any time) (R5-tropic HIV-1; single IV 0.5 mg/kg): 10%
mean log10 decline in viral load at Day 10 (R5-tropic HIV-1; single IV 0.5 mg/kg): 0.37 log10
Log10 change from baseline in HIV-1 RNA: Mean (±SD) at Day 10 (R5-tropic HIV-1; single IV 0.5 mg/kg, 0.5 mg/kg): −0.37 log10 and −0.37 ± 0.54 log10
Log10 change from baseline in HIV-1 RNA: Mean (±SD) of individual nadirs (R5-tropic HIV-1; single IV 2 mg/kg): −1.20 ± 0.63 log10
Mean HIV-1 RNA reduction (maximum) (R5-tropic HIV-1; single IV 2 mg/kg): 1.20 log10
antiviral response rate (subjects with ≥1.0 log10 reduction at any time) (R5-tropic HIV-1; single IV 2 mg/kg): 60%
mean log10 decline in viral load at Day 10 (R5-tropic HIV-1; single IV 2 mg/kg): 1.04 log10
Individual HIV-1 RNA reductions (ranged to) (R5-tropic HIV-1; single IV 2 mg/kg, 2 mg/kg): up to 2.5 log10 and ≤ 2.5 log10
Log10 change from baseline in HIV-1 RNA: Mean (±SD) at Day 10 (R5-tropic HIV-1; single IV 2 mg/kg, 2 mg/kg): −1.04 log10 and −1.04 ± 0.45 log10
Mean HIV-1 RNA reduction (average maximum decrease of viral load) (R5-tropic HIV-1; single IV 5 mg/kg): 1.83 log10
antiviral response rate (subjects with ≥1.0 log10 reduction at any time) (R5-tropic HIV-1; single IV 5 mg/kg): 100%
day on which mean viral load reductions of 1 log10 were first observed (R5-tropic HIV-1; single IV 5 mg/kg): 5 Day
mean log10 decline in viral load at Day 10 (nine days post-treatment) (R5-tropic HIV-1; single IV 5 mg/kg): 1.70 log10
persistence of mean 1 log10 viral load reduction post-treatment (R5-tropic HIV-1; single IV 5 mg/kg): 2-3 weeks
viral load change at day 22 (R5-tropic HIV-1; single IV 5 mg/kg): −0.73 log
Individual HIV-1 RNA reductions (ranged to) (R5-tropic HIV-1; single IV 5 mg/kg, 5 mg/kg): up to 2.5 log10 and ≤ 2.5 log10
Log10 change from baseline in HIV-1 RNA: Mean (±SD) at Day 10 (R5-tropic HIV-1; single IV 5 mg/kg, 5 mg/kg): −1.70 log10 and −1.70 ± 0.49 log10
Log10 change from baseline in HIV-1 RNA: Mean (±SD) of individual nadirs (R5-tropic HIV-1; single IV 5 mg/kg, 5 mg/kg): −1.8 log10 and −1.84 ± 0.41 log10
time of peak concentrations post-infusion [1]: 30 to 60 min
Peak serum concentration (average) ([1]; 0.5 mg/kg): 13 µg/mL
mean time to last observation (tlast) ([1]; 0.5 mg/kg): 6.1 days
volume of distribution (average) ([1]; 0.5 mg/kg): 8.4 L
Peak serum concentration (average) ([1]; 2 mg/kg): 61 µg/mL
mean time to last observation (tlast) ([1]; 2 mg/kg): 18.2 days
volume of distribution (average) ([1]; 2 mg/kg): 13.8 L
Peak serum concentration (average) ([1]; 5 mg/kg): 173 µg/mL
mean time to last observation (tlast) ([1]; 5 mg/kg): 18.9 days
volume of distribution (average) ([1]; 5 mg/kg): 7.1 L
duration of maximal masking or coating of CCR5 ([2]; 0.5 mg/kg): 1 week
average increase in CD4+ lymphocytes ([2]; 5 mg/kg, Day 8): 129 cells/mm^3
mean change in CD4+ cells over baseline ([2]; 5 mg/kg, Day 8): +129 cells/μL
mean change in CD4+ cells over baseline ([2]; 5 mg/kg, Day 15): +96 cells/μL
mean change in CD4+ cells over baseline ([2]; 5 mg/kg, Day 22): +83 cells/μL
mean change in CD4+ cells over baseline ([2]; 5 mg/kg, Days 29 and 59): < +10 cells/μL
change in CD4+ cells (in words) ([2]; 0.5 and 2 mg/kg groups): No significant change
duration of maximal (high-level) coating of CCR5 ([2]; 2 and 5 mg/kg (higher dose levels)): 2 weeks
duration of significant (p<0.05) coating of CCR5+ lymphocytes ([2]; all PRO 140 treatment groups): 2-4 weeks
depletion of CCR5+ cells ([2]; human, in vivo): no depletion of CCR5^+ cells
mean reduction in viral load at day 22 (R5 HIV-1; SC 162 mg weekly): 0.75 log 10
% subjects with ≥1 log10 drop (R5 HIV-1; SC 162 mg, Days 1, 8, 15): 55%
Max viral load reduction (mean) (R5 HIV-1; SC 162 mg, Days 1, 8, 15): 0.99 log10
Max viral load reduction: Range (R5 HIV-1; SC 162 mg, Days 1, 8, 15): −0.23 to −1.92 log10
Mean duration in days ≥1 log10 drop (R5 HIV-1; SC 162 mg, Days 1, 8, 15): 14 days
log10 change in HIV-1 RNA: Day 22 Mean (R5 HIV-1; SC 162 mg, Days 1, 8, 15): −0.75 log10
log10 change in HIV-1 RNA: Day 22 Median (R5 HIV-1; SC 162 mg, Days 1, 8, 15): −0.77; p = 0.0072 log10
maximum log10 change in HIV-1 RNA: Mean (R5 HIV-1; SC 162 mg, Days 1, 8, 15): −0.99 log10
maximum log10 change in HIV-1 RNA: Median (R5 HIV-1; SC 162 mg, Days 1, 8, 15): −1.06; p = 0.0093 log10
mean reduction in viral load at day 22 (R5 HIV-1; SC 324 mg bi-weekly): 1.20 log 10
mean reduction in viral load at day 22 (R5 HIV-1; SC 324 mg weekly): 1.51 log 10
% subjects with ≥1 log10 drop (R5 HIV-1; SC 324 mg, Days 1, 8, 15): 73%
Max viral load reduction (mean) (R5 HIV-1; SC 324 mg, Days 1, 8, 15): 1.65 log10
Max viral load reduction: Range (R5 HIV-1; SC 324 mg, Days 1, 8, 15): −0.76 to −2.50 log10
Mean duration in days ≥1 log10 drop (R5 HIV-1; SC 324 mg, Days 1, 8, 15): 20 days
log10 change in HIV-1 RNA: Day 22 Mean (R5 HIV-1; SC 324 mg, Days 1, 8, 15): −1.51 log10
log10 change in HIV-1 RNA: Day 22 Median (R5 HIV-1; SC 324 mg, Days 1, 8, 15): −1.50; p < 0.0001 log10
maximum log10 change in HIV-1 RNA: Mean (R5 HIV-1; SC 324 mg, Days 1, 8, 15): −1.65 log10
maximum log10 change in HIV-1 RNA: Median (R5 HIV-1; SC 324 mg, Days 1, 8, 15): −1.74; p < 0.0001 log10
% subjects with ≥1 log10 drop (R5 HIV-1; SC 324 mg, Days 1, 15): 67%
Max viral load reduction (mean) (R5 HIV-1; SC 324 mg, Days 1, 15): 1.37 log10
Max viral load reduction: Range (R5 HIV-1; SC 324 mg, Days 1, 15): −0.35 to −3.53 log10
Mean duration in days ≥1 log10 drop (R5 HIV-1; SC 324 mg, Days 1, 15): 18 days
log10 change in HIV-1 RNA: Day 22 Mean (R5 HIV-1; SC 324 mg, Days 1, 15): −1.20 log10
log10 change in HIV-1 RNA: Day 22 Median (R5 HIV-1; SC 324 mg, Days 1, 15): −1.03; p < 0.0001 log10
maximum log10 change in HIV-1 RNA: Mean (R5 HIV-1; SC 324 mg, Days 1, 15): −1.37 log10
maximum log10 change in HIV-1 RNA: Median (R5 HIV-1; SC 324 mg, Days 1, 15): −1.16; p = 0.0001 log10
continuation of suppression following the last dose (R5 HIV-1; SC 324 mg, days 1, 8 and 15): 7 days
administration site reactions [3]: mild in intensity and resolved within one to two days
drug-related serious adverse events [3]: no drug-related serious adverse events
tolerability [3]: generally well tolerated compared to placebo
